Assay results as given in PMC11905679.

How the values were obtained:
α-chymotrypsin (bovine) [1] = molecular target: α-chymotrypsin (bovine)
α-chymotrypsin (bovine) [2] = molecular target: α-chymotrypsin (bovine); remark: listed apart in the source
α-chymotrypsin (bovine) [3] = molecular target: α-chymotrypsin (bovine); remark: listed apart in the source
α-chymotrypsin (bovine) [4] = experiment: enzyme inhibition kinetics

Trichinella pseudospiralis serine protease inhibitor (Tp-serpin) (natural protein)
k3, rate constant of the irreversible inhibition of α-chymotrypsin (BTEE hydrolysis, 256 nm) (α-chymotrypsin (bovine) [1]): 0.00235 s⁻¹ | stoichiometry of inhibition (SI), residual chymotrypsin activity against the molar ratio [I]/[E] (α-chymotrypsin (bovine) [2]): 1.19 | inhibition rate of α-chymotrypsin enzyme activity at 200 nM serpin (α-chymotrypsin (bovine) [3]): > 80% | Ki (α-chymotrypsin (bovine) [4]): 47.9 nM

Trichinella spiralis serine protease inhibitor (Ts-serpin) (natural protein)
k3, rate constant of the irreversible inhibition of α-chymotrypsin (BTEE hydrolysis, 256 nm) (α-chymotrypsin (bovine) [1]): 0.00247 s⁻¹ | stoichiometry of inhibition (SI), residual chymotrypsin activity against the molar ratio [I]/[E] (α-chymotrypsin (bovine) [2]): 1.21 | inhibition rate of α-chymotrypsin enzyme activity at 200 nM serpin (α-chymotrypsin (bovine) [3]): > 80% | Ki (α-chymotrypsin (bovine) [4]): 49.2 nM
